# Measurements taken from the supplement of paper PMC10567573.
# ± gives the standard deviation.
# Experiment: protein stability index of a GFP-peptide fusion (GPS, HEK-293T) (PSI 1-6); higher = more stable
# Conditions: c terminus: a fixed tail appended
# 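Note: 24-mer peptide tiles fused after GFP, lentivirally expressed, FACS-sorted into six equal bins by GFP/DsRed ratio, decoded by Illumina sequencing, PSI is the read-weighted mean bin number.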
Sequence,protein stability index (treatment: DMSO),"protein stability index (treatment: MLN4924 1 uM, 8 h)"
AAIKVNDSVPFHLGWNSTERSLRL [MYORG],2.61 ± 0.16,2.81 ± 0.38
AALNMSLGMVTPVNDLRGSDSIAY [ADD1],2.48 ± 0.37,2.62 ± 0.22
ADGGGAPPQGGCGGGGCDRYEPLP [KCNA3],4.54 ± 0.32,4.75 ± 0.16
ADLLAGFGGSFMAPSPSPVTPAQN [SNAP91],4.16 ± 0.38,4.28 ± 0.24
ADLRLGGQPAPPQLLLGRLFRWPD [SMAD6],2.84 ± 0.13,2.83 ± 0.23
ADWTQGLPWRFEELLTCSHWPSFF [TEX19],2.54 ± 0.67,2.6 ± 0.58
AEADEPTTHFQSIPDAFWWAVVTM [KCNA4],2.04 ± 0.76,2.11 ± 0.22
AEAEALYSAYIRRCACAASSDESP [TTC32],3.25 ± 0.28,3.42 ± 0.3
AEDYLTWKEWGFTGVQEVLSALLR [SPAG8],2.28 ± 0.33,2.19 ± 0.4
AEEFEQPTLSCEKYLTYDQLRKQK [ELOA2],4.71 ± 0.31,4.9 ± 0.11
AEELALEQAKKESEDQKRLKQAKE [CHCHD3],5.72 ± 0.22,5.41 ± 0.29
AEESNPPLQDFPNSISSDKEATVP [MIA2],5.41 ± 0.1,5.36 ± 0.25
AEGNNQAPGEEEEEEEEATNTHPP [CHGA],5.35 ± 0.43,5.61 ± 0.34
AEMPHTETVSPLPSSMDLLIQDSP [NANOGP8],5.09 ± 0.19,5.32 ± 0.2
AEPDMDDPAYIAVLVLIFNAAKTC [INTS4],2.37 ± 0.47,2.12 ± 0.29
AERLGVTFFEVSPLCNFNIIESFT [RAB40A],2.32 ± 0.65,2.5 ± 0.46
AESFLLKSPIAPCSLDKRVILIFH [CDC25B],2.75 ± 0.73,2.68 ± 0.96
AESRELPVRCAGDWLPRGLGWGGR [ALG2],2.53 ± 0.053,2.54 ± 0.29
AFDFDYGNCKYKVDCACLKENPEC [KMT2E],3.53 ± 0.17,3.54 ± 0.42
AFEFKKPVRPVSRGCLHSHGLQEG [CDC25A],2.87 ± 0.28,2.82 ± 0.23
AGLDWQSLGQMKELGVIFYNCSCL [PLD5],3.12 ± 0.15,3.26 ± 0.43
AGLLIIVLAIIAREGDCAPEEKIW [MAGEA3],3.25 ± 0.46,2.8 ± 0.34

Sequence,protein stability index (treatment: DMSO),"protein stability index (treatment: MLN4924 1 uM, 8 h)"
AGPQSQVLCGVVMDRSLVQDAPLS [ADD1],3.62 ± 0.2,3.59 ± 0.11
AGQLMGFFKGIDQDIERGVQSEIF [LYSMD4],2.71 ± 0.33,2.75 ± 0.34
AGRGGAAGTAGVGETGSGDQAGGE [MYOZ1],5.63 ± 0.24,5.43 ± 0.32
AGRPSLLRHDEVRTYFHEFGHVMH [NLN],2.48 ± 0.13,2.45 ± 0.47
AHKCLECGKCFSQNTHLTRHQRTH [ZNF263],4.92 ± 0.14,5 ± 0.3
AIPIKSWFSDPSDTALLNLLPMLD [CTDNEP1],2.33 ± 0.16,2.47 ± 0.3
AKFDFLTRKHHCRRCGKCFCDRCC [ZFYVE21],3.08 ± 0.29,3.45 ± 0.44
AKNFHVKAVMKTSVLLSWEIPENY [PTPRD],2.89 ± 0.27,–
AKREETKAMESQRAYRFVQGKDWG [SPOPL],3.09 ± 0.61,3.59 ± 0.37
ALASISHVAHVTITTKTADGKCAY [MLH1],–,2.63 ± 0.3
ALKMTWHVHCFTCAACKTPIRNRA [PDLIM7],2.5 ± 0.51,2.3 ± 0.58
ALSYAQHTRQLISCGGDGGIVVWN [WDFY2],2.16 ± 0.47,2.12 ± 0.23
ALVSHPEVPLISFTGSQPTAERIT [ALDH8A1],3.87 ± 0.2,3.87 ± 0.31
AMTGTFPAYGMSPSLSTITSTSSS [DVL3],3.68 ± 0.24,3.61 ± 0.17
ANFIEKVRFLEQQNAALRGELSQA [PRPH],3.39 ± 0.12,3.36 ± 0.39
ANISIANKYDNTCLMIAAYKGHTD [FEM1B],2.75 ± 0.17,2.98 ± 0.32
ANVTLSLDTVEEVLSVSKILHIPQ [KLHL14],2.31 ± 0.43,2.21 ± 0.38
APAHVDEQVFLYENARSGAEAEPE [ZBED1],5.58 ± 0.21,5.51 ± 0.28
APHSTFFDPIVLLPCDLPKVVSRA [LPCAT4],2.67 ± 0.31,2.72 ± 0.15
APHTPPLPRRPRKGSSELGFPRVA [RNF208],4.17 ± 0.21,4.06 ± 0.13
APMVAGALARLGTVTVISPLELMR [SLC25A39],2.35 ± 0.22,2.41 ± 0.32
AQAAVQGPVGTDFKPLNSTPATTT [ZNF207],4.81 ± 0.24,4.89 ± 0.26

Sequence,protein stability index (treatment: DMSO),"protein stability index (treatment: MLN4924 1 uM, 8 h)"
AQAGGSKKAEQKKKEKIIEDKTFG [ZC3H15],5.12 ± 0.17,5.23 ± 0.16
AQEVSPCGPPSLGAVLALVAIFIM [MFSD9],2 ± 0.15,1.93 ± 0.39
AQHKFLVAVESMEPNNIVVLLQTS [TCF25],2.58 ± 0.54,2.35 ± 0.56
AQRKEERWDMADNEQVLTTEHEKK [YJU2B],5.57 ± 0.21,5.6 ± 0.12
AQTLAYGDMNHEWIGNEWLPSLGL [PPFIA4],2.54 ± 0.43,2.24 ± 0.029
ARARERERLAHSRAAAAAAVAAAT [KCNA4],4.27 ± 0.24,4.38 ± 0.13
ARDVQKIIGDYFSDQDPRVRTAAI [INTS4],3.03 ± 0.29,3.15 ± 0.21
ARHFNYVGDLMGSLAYCLACGGGH [DHCR7],2.9 ± 0.71,2.68 ± 0.53
ARSAASYMLFDPKDSVMQQNLVYY [P3H4],2.28 ± 0.48,2.08 ± 0.45
ASAAAATAAFTTAKAAALSTKTPA [SPAG8],4.48 ± 0.26,4.57 ± 0.2
ASAEAPGDSGERSEGEAMEICSEP [ZNF511],5.54 ± 0.21,5.47 ± 0.29
ASAGKRRCFWLGMEGLETAEGSNS [SDE2],3.62 ± 0.26,3.84 ± 0.45
ASGHEPGGSAVCASRVKLQHLPAQ [PLEKHN1],4.11 ± 0.27,3.95 ± 0.14
ASPVPESSLTADLLSVDAFAAPSP [SNAP91],4.88 ± 0.28,4.97 ± 0.15
ASQFLASASSSTTCCESTQRSVSD [IRX6],5.09 ± 0.22,5.09 ± 0.22
ASQHSYPLNRFSSVPLDPMERPMS [CBY2],3.92 ± 0.33,3.98 ± 0.32
ASTPAQTAAGGQGGPGGPGSDKQQ [NR2F2],5.58 ± 0.26,5.59 ± 0.3
ASVTIQARAEQEEEFISNTLFKKI [CCDC6],3.54 ± 0.14,3.81 ± 0.12
ATEWQKAGAPPPSGSAVSTAPQQK [SRPK2],5.42 ± 0.14,5.18 ± 0.21
ATLAACTSNGWGVTDCKHTEDVGV [LOXL2],4.03 ± 0.42,4.08 ± 0.21
ATLTQVSVEYGYRPGATAVPTPLT [FCHO1],2.39 ± 0.36,2.47 ± 0.26
